± gives the uncertainty stated by the source.
Assay: protein stability index of a GFP-peptide fusion (yeast GPS) (PSI 1-4); higher = more stable; sorted into four equal gates, so the index is relative within each strain
Procedure, shortened: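 The protein stability index of a peptide was calculated by multiplying its read frequency in each gate by that gate's number and adding the products. The peptides were tiled 17-residue stretches of yeast proteins, fused downstream of GFP on a Cherry-expressing plasmid and carried in yeast as a pooled library. Mid-log cultures in leucine-free medium were sorted into four equal gates by GFP/Cherry ratio, and each gate's plasmids were PCR-amplified and Illumina-sequenced.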

| Sequence | protein stability index (doa10∆) | protein stability index (pdr5∆) | protein stability index (san1∆) | protein stability index (ubr1∆) |
| --- | --- | --- | --- | --- |
| FQNTNTRSALKLVRESE [QCR2] | 2.7 ± 0.078 | 2.94 ± 0.074 | 2.81 ± 0.088 | 2.64 ± 0.07 |
| VRLRSNVIKTGIRIISL [RPN3] | 2.27 ± 0.21 | 2.35 ± 0.14 | 2.22 ± 0.23 | 2.44 ± 0.065 |
| VAFVCSPISDSRDELIR [RPN10] | 2.42 ± 0.093 | 2.56 ± 0.11 | 1.67 ± 0.12 | 2.34 ± 0.099 |
| RAKSCGVDAMSVDDLKK [RPL1A] | 2.54 ± 0.078 | 2.41 ± 0.078 | 2.69 ± 0.075 | 2.48 ± 0.05 |
| RYKPKSHLWEIDIPLDE [RPC37] | 2.81 ± 0.23 |  | 3.03 ± 0.22 |  |
| HAGTAIGIMASDGIVLA [PRE9] | 2.96 ± 0.095 | 3.02 ± 0.14 | 3.09 ± 0.1 | 2.42 ± 0.14 |
| PNFDWDLCSSVLSQFER [ROX3] | 3.12 ± 0.079 | 2.8 ± 0.095 | 2.6 ± 0.08 | 2.59 ± 0.067 |
| VKTSPDAKKCIAACTGV [FAS1] | 2.41 ± 0.12 | 3.02 ± 0.16 | 3.01 ± 0.24 | 2.48 ± 0.08 |
| SNTTTHVPEKKSTDLTP [MTR3] |  |  | 2.15 ± 0.18 | 1.31 ± 0.29 |
| ASDGGLYVPHSENRFPG [RPL5] | 2.19 ± 0.1 | 2.61 ± 0.079 | 2.93 ± 0.095 | 2.92 ± 0.057 |
| DCQFWETWLGSQCRLHE [PRE2] | 2.22 ± 0.096 | 2.1 ± 0.14 | 2.59 ± 0.11 | 2.6 ± 0.09 |
| FYSKNRLLITGTPLQNN [ISW2] |  | 1.39 ± 0.17 |  |  |
| AAKKAMYTLSAQDEVFS [ASC1] | 2.78 ± 0.071 | 2.6 ± 0.063 | 2.23 ± 0.091 | 2.83 ± 0.06 |
| FKRVSQTFEAKLHFKDT [NUT1] | 2.96 ± 0.082 | 3.32 ± 0.1 | 3.41 ± 0.053 | 3.19 ± 0.051 |
| ESQYPIVTEQPSAEIRE [SWP82] | 2.56 ± 0.04 | 2.73 ± 0.042 | 2.57 ± 0.047 | 2.56 ± 0.039 |
| TLQDFHLIFSNARIYNT [SNF2] | 2.25 ± 0.081 | 2.17 ± 0.1 | 1.63 ± 0.18 | 2.79 ± 0.073 |
| NVKEITEKLKISPESVF [SMC3] | 1.7 ± 0.086 | 2.18 ± 0.069 | 2.32 ± 0.13 | 2.04 ± 0.052 |
| PTGKEEGDGAKAAISFG [YJL041W/NSP1] | 3.37 ± 0.11 | 3.04 ± 0.1 | 3.35 ± 0.1 | 3.38 ± 0.069 |
| VKIGDIEKWTANLLPAR [RPS22A] | 2.19 ± 0.076 | 2.65 ± 0.095 | 2.56 ± 0.076 | 3.17 ± 0.087 |
| ILTSKVNAIKNEVKEWA [DSN1] | 2.64 ± 0.09 | 2.66 ± 0.094 | 3.07 ± 0.072 | 2.82 ± 0.08 |

| Sequence | protein stability index (doa10∆) | protein stability index (pdr5∆) | protein stability index (san1∆) | protein stability index (ubr1∆) |
| --- | --- | --- | --- | --- |
| PVVINLDAKNKVFVPPK [RPO31] | 2.93 ± 0.12 | 3.13 ± 0.13 | 3.33 ± 0.11 | 2.95 ± 0.15 |
| SPQQFLRAHTDDSRNPD [PRE2] | 2.93 ± 0.092 | 3.03 ± 0.069 | 2.7 ± 0.079 | 2.88 ± 0.079 |
| VAEIVQNVISLGSLTVE [RPC82] | 1.97 ± 0.068 | 2.23 ± 0.098 | 1.97 ± 0.14 | 1.68 ± 0.11 |
| TQVRVEFLEDTSRTIVR [RPS28A] | 3.37 ± 0.24 | 3.06 ± 0.13 | 2.91 ± 0.095 | 3.3 ± 0.14 |
| AYGVLDSNYKWDLSVED [PRE2] | 3 ± 0.073 | 2.94 ± 0.083 | 3.26 ± 0.086 | 3.42 ± 0.056 |
| ADGLLQVLVCTATLAWG [BRR2] |  | 1.77 ± 0.28 | 2.17 ± 0.18 | 2.14 ± 0.25 |
| HRWGTKKLPRKTHRGLR [RPL3] | 3.32 ± 0.11 | 3.04 ± 0.13 | 3.12 ± 0.084 | 3.34 ± 0.061 |
| TQKDSARVSPRNNVANK [YAR002W/NUP60] | 3.22 ± 0.1 | 3.52 ± 0.12 | 3.23 ± 0.096 | 3.02 ± 0.072 |
| QIQLAESELSLLEETQA [SMC4] | 2.69 ± 0.066 | 3.25 ± 0.063 | 2.71 ± 0.095 | 3.05 ± 0.052 |
| VAKVDEEGRAIPGEYIT [RPS21B] | 2.5 ± 0.095 | 2.52 ± 0.12 | 2.44 ± 0.1 | 2.77 ± 0.065 |
| IIVFGYPESISNELIEH [YDL088C/ASM4] | 2.12 ± 0.066 | 2.78 ± 0.049 | 2.63 ± 0.058 | 2.75 ± 0.054 |
| VLPLGSVPEGTIVSNVE [RPL2A] | 3.19 ± 0.12 | 3.33 ± 0.11 | 2.78 ± 0.18 | 3.12 ± 0.094 |
| GEGPFTVKFKHMDYDGN [YMR129W/POM152] | 2.79 ± 0.11 | 2.86 ± 0.068 | 2.78 ± 0.11 | 2.78 ± 0.059 |
| VATNIVNEDPIFHPMIH [YML103C/NUP188] | 2.53 ± 0.046 | 2.63 ± 0.045 | 2.44 ± 0.045 | 2.58 ± 0.038 |
| EEASQLIEYMENDAKKS [NUT1] | 2.95 ± 0.081 | 3.2 ± 0.067 | 3.15 ± 0.061 | 3.04 ± 0.048 |
| KALLFFNNEKETEKFAL [RPN12] | 3.25 ± 0.084 | 3.03 ± 0.12 | 3.31 ± 0.059 | 3.17 ± 0.083 |
| TEENIKGETNSEISIID [RRP45] | 2.96 ± 0.07 | 3.16 ± 0.064 | 3.3 ± 0.055 | 3.22 ± 0.053 |
| NLPILKNHFRKHWQERV [RPL13A] | 2.33 ± 0.085 | 2.83 ± 0.073 | 2.31 ± 0.1 | 1.87 ± 0.089 |
| DVTPADDLKQKKEELVE [RPO31] | 3.12 ± 0.16 | 3.25 ± 0.093 | 3.08 ± 0.15 | 3.24 ± 0.12 |
| TWSLILNECLKTIQINN [YML031W/NDC1] | 1.88 ± 0.057 | 1.62 ± 0.058 | 1.3 ± 0.1 | 1.86 ± 0.042 |

From the supplement of paper PMC9732359
